From EP2586797A2 (Medtronic, Inc., dated 2013) come the findings set out here.

Assay [1] addresses T1, Abeta42 beta amyloid peptide (UniProt P05067 672-713).
T1 construct: domain: Abeta42 beta amyloid peptide; also called Aβ42; Aβ
Briefly: competition ELISA, NS0 supernatant titrated against 0.25 ug/ml biotinylated mouse 6E10 (mouse MDT-2007) on coated beta amyloid; IC50 normalised to mouse 6E10 (=1; <1 improved). For orientation: In an ELISA, binding on a coated surface is turned into a signal by an enzyme label.

The target in assay [2] is T1, Abeta42 beta amyloid peptide. As to the kind of experiment: competition ELISA, purified antibody against biotinylated 6E10 on coated beta amyloid; normalised to the row 'Mouse' (chimeric mouse 6E10); <1 improved.
For assay [3] the target is unchanged. Briefly: competition ELISA, purified antibody 0.003-16 ug/ml against biotinylated 6E10 (chimeric mouse 6E10) on coated beta amyloid, n=2.
The target is the same in assay [4]. As to the kind of experiment: competition ELISA, purified antibody on coated beta amyloid (Table 4), against the mouse reference.
For assay [5] the target is unchanged. Briefly: competition ELISA, purified antibody against biotinylated 6E10 (chimeric mouse 6E10) on coated beta amyloid; the reference row itself.

The term IC50 denotes the point on the concentration scale where inhibition reaches its midpoint.

T1 sequence (P05067 672-713 limits assumed): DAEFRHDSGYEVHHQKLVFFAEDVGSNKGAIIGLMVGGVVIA

B1: Composite human antibody variant VH4/VK1 (antibody, human IgG1, V domains shown)
VH: QVQLVQSGAEVKKPGASVKVSCTASGFNIKDTYIHWVRQARGQRLEWIGRFDPVNVNTRYDSRFRGRVTITSDASTNTAYMELSSLRSEDTAVYYCSRSYYNGRRRFTYWGQGTLVTVSS
VL: DIVMTQSPDSLTVSLGERATINCKASQSLLSSGNQKNYLTWYQQKPGQPPKLLIYWASIRESGVPDRFTGSGSGTFFTLTISSLQAEDVAVYYCQNDYNYPFTFGQGTKLEIK
notes: Human IgG1/kappa (pANT15/pANT13), NS0 cells; also called VH4/YK1
For the molecule B1, in assay [1], the “fold difference in IC50 relative to mouse 6E10” value was 0.94 fold. Also, the “Fold Difference (IC50 normalised to the reference)” value in assay [2] is 1.14 fold. Moreover, the IC50 in assay [3] stood at 4.1 µg/mL.

B2: MDT-2007 (composite human antibody sequence variant VH4/VK2) (antibody, human IgG1, V domains shown)
VH: QVQLVQSGAEVKKPGASVKVSCTASGFNIKDTYIHWVRQARGQRLEWIGRFDPVNVNTRYDSRFRGRVTITSDASTNTAYMELSSLRSEDTAVYYCSRSYYNGRRRFTYWGQGTLVTVSS
VL: DIVMTQSPSSLTASVGDRVTITCKASQSLLSSGNQKNYLTWYQQKPGQPPKLLIYWASIRESGVPDRFTGSGSGTFFTLTISSLQAEDVAVYYCQNDYNYPFTFGQGTKLEIK
notes: Human IgG1/kappa (pANT15/pANT13), NS0 cells
For the molecule B2, the “fold difference in IC50 relative to mouse 6E10” value in assay [1] is 0.67 fold. In addition, in assay [2], the “Fold Difference (IC50 normalised to the reference)” value turned out to be 0.57 fold. In assay [3], this molecule showed an IC50 of 2.1 µg/mL. Also, the “fold increase in binding compared to the mouse reference” value in assay [4] amounted to 1.72 fold.

B3: Composite human antibody variant VH5/VK2 (antibody, human IgG1, V domains shown)
VH: QVQLVQSGAEVKKPGASVKVSCTASGFNIKDTYIHWVRQARGQRLEWIGRFDPVNVNTRYDSRFRGRVTITSDASTSTAYMELSSLRSEDTAVYYCSRSYYNGRRRFTYWGQGTLVTVSS
VL: DIVMTQSPSSLTASVGDRVTITCKASQSLLSSGNQKNYLTWYQQKPGQPPKLLIYWASIRESGVPDRFTGSGSGTFFTLTISSLQAEDVAVYYCQNDYNYPFTFGQGTKLEIK
notes: as for B2
In the case of B3, the “fold difference in IC50 relative to mouse 6E10” value in assay [1] is 0.72 fold. In assay [2], the “Fold Difference (IC50 normalised to the reference)” value was 0.72 fold. Besides, the IC50 in assay [3] came out at 2.6 µg/mL.

B4: Composite human antibody variant VH5/VK1 (antibody, human IgG1, V domains shown)
VH: QVQLVQSGAEVKKPGASVKVSCTASGFNIKDTYIHWVRQARGQRLEWIGRFDPVNVNTRYDSRFRGRVTITSDASTSTAYMELSSLRSEDTAVYYCSRSYYNGRRRFTYWGQGTLVTVSS
VL: DIVMTQSPDSLTVSLGERATINCKASQSLLSSGNQKNYLTWYQQKPGQPPKLLIYWASIRESGVPDRFTGSGSGTFFTLTISSLQAEDVAVYYCQNDYNYPFTFGQGTKLEIK
notes: Human IgG1/kappa (pANT15/pANT13), NS0 cells; also called VH5/YK1
As to B4, in assay [1], the “fold difference in IC50 relative to mouse 6E10” value was found to be 0.8 fold. In assay [2], the “Fold Difference (IC50 normalised to the reference)” value was 0.91 fold. Besides, the IC50 in assay [3] is 3.3 µg/mL.

B5: mouse 6E10 anti-Aβ antibody (antibody, V domains shown)
VH: EVQLQQSGAELVKPGASVKLSCTASGFNIKDTYIHWVKQRPEQGLEWIGRFDPVNVNTRYDSRFRGKATITSDASSNTAYLHLNSLTSEDTAVYYCSRSYYNGRRRFTYWGQGTLVTVSA
VL: DIVMTQSPSSLTVTAGEKVALTCKASQSLLSSGNQKNYLTWYQQKPGQPPKLLIYWASIRESGVPDRFTGSGSGTFFTLTISSVQAEDLAVYYCQNDYNYPFTFGSGTKLEIK
notes: Murine monoclonal from hybridoma 6E10 (Covance); also called 6E10 mouse antibody
With B5, the “Fold Difference (IC50 normalised to the reference)” value in assay [5] was found to be 1 fold. This molecule returned an IC50 in assay [3] of 3.6 µg/mL.
